The values below come from the DeepSol protein solubility set.

A short description of this series: soluble on expression in E. coli; label from the status in PepcDB or PDB records.
On to “MGSDKIHHHHHHMKCPTETLPMMRCNQILDAAERLIESQGIVSFKFSQLAKEVGCSTGTLYKFFERKEDVLVCLFLRSATSNHLPIFIDKHPELSELEKVLLPVLFTFETISRSKSFFTLRSVSVNTMVWQLASDEKVERFKKRINAFWGWFTDSLHAAVEQGELQATPLQIKELVQGLTFYLTGSLTQFESQLIAPEYLSNRRETCYRHLAKLMGQYKWNQALTPELFDSLEARTKAFFDQHYRDHMTCAACSALSGVNLKDRPACVRQAYQ”, for which the “soluble on expression in E. coli” value is listed as “not soluble”.

With “SGSEPTKVMVAVNASTIKDYPNPSISCKRAFEWTLEKIVRSNTSDFKILLLHVQVVDEDGFDDVDSIYASPEDFRDMRQSNKAKGLHLLEFFVNKCHEIGVGCEAWIKTGDPKDVICQEVKRVRPDFLVVGSRGLGRFQKVFVGTVSAFCVKHAECPVMTIKRNADETPSDPADD”, the “soluble on expression in E. coli” value is on record as “soluble”.

Take “MGSDKIHHHHHHVPNEKLSNRDRLLAVRDIFEQYSDEEQTLTLEELSTELSKRGLIEKLSRKSLKEDIAALAKSGFDIHAEETKNGLAIPYHLVSRPFEYHHLRLLVDAIASAKFISESETEVLVRNIHTLTSKRLAKTLTPVIHTVKKPKGVIPFSIDTIQKAIIEQDIISFQYQGKFNERTRKFELRRDGDYYLVTPAHLIVDNGNYYLIGRDERVEEIRTYRVDRIVNCSVFEPAQTPVEVEATYLSSMFNMYGGEQEQLTLKFHESVMPTVVDRFGTDIRCRRLEGDWFEVKVGALFSQGFMMWLIQFAEQAEILEPALCREAFKNKVLELAKVYQAGVPVSPQMNESV”: the “soluble on expression in E. coli” value is “not soluble”.

On to “ELGRLEDPAFTIKDAMIVATYPGATSKEVEEELTYPLEKEIRKLPYIDRITSTSSNGMSQIMVSMKMDYGPDELPQIWDEMRRKINDLQPTLPQGVQSLQIIDDFGDVYGVMLMLTGDDYDYVELKRYADHLRREIELVDGVGKVDIAGDQQEMLFVEISLDRLASLNLDMNVVSGLLNQQNNVVSAGEVMVNGESLVIRPSGTLNTVQALENLIIHGRDTGNLIRLKDVATITRGIQEKPGNMILFNGKKAINIGISFASGVNVVEVGERLNAELSSLESIKPAGLDMSYFYNQAQEVDDSVK”, for which the “soluble on expression in E. coli” value was “soluble”.

As to “MPLTKRAVSPVNLSRGTIPSTIHRDELQCTANGTIANLVRQLSSLSKHAENIFGEIYHDAMIINHKSNTLQQRIDRLHKKVEDLDSNSDQATLNEANMRKAFKSSMLVDQHILDRSTLPTALTEIYAKCDPPPDLDALNPYRDSEIPALSLYTNPSFFFDLWKKETLKEVAERPRRVKSPNDGSKSPKKRRKQPGQGPLGTTAYNDMQHRNRQISGSRINQQNEVFSFPEEYQAPQALGLQLNFKNQHPSNMVAPIGMTMHHHPQQNVHPSQQRGGAPAAARGSPNVKRPTEAPPPVNLDHLPPPDMSILSIDDDDDDLPPPPPPLLMNTSIVHQLPAEAPSTIQFVEPSAAPPTNIPPPPPPPPPMVISSAAASFAAPAPKPSADGEAAGTNSPVAPKQPDARSDLLAQIQSGIKLKKVQRAEAEAAENAALEANNVAAILKRRMDQVMGNDDSSSEEGADDDEWDD”, the “soluble on expression in E. coli” value was “not soluble”.

In the case of “GPGSMLRAACCVLSGFPASVSRLFFLSWISLVDTALSFPPPRQTEIAPTRVWAGEGGGGGITALQAVTCPSHSTTCAACAGAGQHPPPPCQPPCRCVRVRVCVVHALLLPPPPSLAILLSCAQTTSTSLPPCFRRQSRARPPPHTHTHIHKHRASCAHHLSLPLLPHMSTAADRQAFLRLMGLTDADVTDPDHQPCAMLHSQTSSSHNVTDKVHRGVKYNSPTASSVAGLSHSASLGGDAIQFSLMNTTNTLRDTSPIVASGPSSSSSRPLFSAPRSVHWEEESIATTSHSSQLPQRAGASGCTAAAISEELKDVGNRSFEAGAFREAVQHYTAAIDALAASTTHSSAEVLLLSALYSNRSAAYLQAAHQMPSVEDAYARALCDADRTVSLRTSWFKGYARQGDAYFKLKRYGAAAEAYEMALQLDPRNKTLMNALSESRQRARHAAREELELRRTMRSTTSTTSSLASSMTGQAGSSTWSEGDPRGGAAASQQAQTLSDVYDGGRRRSGQAQQLWAALKHEVEATVHEVTGDAYRLQQLERFRARCSKGATPTARQAAERKTYVKGVTALASGAPASEPMREASVSGSRFSTATRPDVDVSTAAAAAAAERRHVSSVSPFAATALSSEPHLPPRRRSSASAAFDGPVKNARDVPYEFSSAAASAYQQRLLEEFRKRKATKQ”, the “soluble on expression in E. coli” value was “not soluble”.

With “MEKIKYGFGEIEAAASDIQSTSGRINSLLEDLKAHIRPMAAAWEGESAQAYNEAQQQWDSSAAELNTILSTISNTVRQGNDRMSEVNRMAAASWS”, the “soluble on expression in E. coli” value is “not soluble”.
